Literature values as cited in PMC4384115, “Molecular Recognition of PTS-1 Cargo Proteins by Pex5p: Implications for Protein Mistargeting in Primary Hyperoxaluria” (Biomolecules, 2015).

Key:
[1] = molecular target: 3-Hydroxy-3-methylglutaryl-CoA lyase PTS1 peptide (Homo sapiens)
[2] = molecular target: L-Bifunctional enzyme PTS1 peptide (Homo sapiens)
[3] = molecular target: Carnitine acyl-transferase 1 PTS1 peptide (Homo sapiens)

Kd [1]: 2000 nM
Kd [2]: 1100 nM
Kd [3]: 59 nM
Substance: Pex5p pbd (from UniProt P50542)
